Consider one molecule from PMC5765006 (2018).

The target in the assay is soluble extracellular domain of human TM (Homo sapiens (Human), UniProt P07204). As to the kind of experiment: competition pull-down (native Ang1 inhibits thrombin/TM co-precipitation on Ni-NTA, western blot); direct pull-down only with BowAng1; indirect readout: displacement of thrombin (5 nM) from soluble TM.
Sequence of soluble extracellular domain of human TM (P07204 19-515): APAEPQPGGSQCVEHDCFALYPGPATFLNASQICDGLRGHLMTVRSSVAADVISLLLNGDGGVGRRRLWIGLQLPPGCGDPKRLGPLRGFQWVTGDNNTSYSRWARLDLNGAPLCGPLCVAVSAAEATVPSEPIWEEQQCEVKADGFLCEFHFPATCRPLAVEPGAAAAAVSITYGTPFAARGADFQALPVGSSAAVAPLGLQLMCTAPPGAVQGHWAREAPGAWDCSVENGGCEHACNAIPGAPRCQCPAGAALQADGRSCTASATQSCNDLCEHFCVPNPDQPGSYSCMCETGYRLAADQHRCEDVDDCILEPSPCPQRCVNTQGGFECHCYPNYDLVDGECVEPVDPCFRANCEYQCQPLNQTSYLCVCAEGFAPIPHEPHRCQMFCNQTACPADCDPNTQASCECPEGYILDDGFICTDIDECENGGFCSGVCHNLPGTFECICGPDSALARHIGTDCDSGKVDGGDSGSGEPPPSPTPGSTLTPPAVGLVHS

B1: native human Ang1 (protein)
chain: HIGCSNQRRSPENSGRRYNRIQHGQCAYTFILPEHDGNCRESTTDQYNTNALQRDAPHVEPDFSSQKLQHLEHVMENYTQWLQKLENYIVENMKSEMAQIQQNAVQNHTATMLEIGTSLLSQTAEQTRKLTDVETQVLNQTSRLEIQLLENSLSTYKLEKQLLQQTNEILKIHEKNSLLEHKILEMEGKHKEELDTLKEEKENLQGLVTRQTYIIQELEKQLNRATTNNSVLQKQQLELMDTVHNLVNLCTKEGVLLKGGKREEEKPFRDCADVYQAGFNKSGIYTIYINNMPEPKKVFCNMDVNGGGWTVIQHREDGSLDFQRGWKEYKMGFGNPSGEYWLGNEFIFAITSQRQYMLRIELMDWEGNRAYSQYDRFHIGNEKQNYRLYLKGHTGTAGKQSSLILHGADFSTKDADNDNCMCKCALMLTGGWWFDACGPSNLNGMFYTAGQNHGKLNGIKWHYFKGPSYSLRSTTMMIRPLDF
For the molecule B1, the binding result is “binds”.
